# Results taken from patent US20040258682A1.
# B1: hLL2 F(ab′)2 fragment (protein, INN chains, looked up)
# VH: QVQLVQSGAEVKKPGSSVKVSCKASGYTFTSYWLHWVRQAPGQGLEWIGYINPRNDYTEYNQNFKDKATITADESTNTAYMELSSLRSEDTAFYFCARRDITTFYWGQGTTVTVSS
# VL: DIQLTQSPSSLSASVGDRVTMSCKSSQSVLYSANHKNYLAWYQQKPGKAPKLLIYWASTRESGVPSRFSGSGSGTDFTFTISSLQPEDIATYYCHQYLSSWTFGGGTKLEIK
# modifications: F(ab')2
# Key:
# [1] = target: CD22, the LL2 antigen on the surface of Raji B-lymphoma cells (UniProt P20273); test: Raji cell binding assay
# [2] = target: CD22, the LL2 antigen on the surface of Raji B-lymphoma cells (UniProt P20273); test: cell-based or functional assay
# [3] = target: CD22, the LL2 antigen on the surface of Raji B-lymphoma cells (UniProt P20273); test: cell surface binding assay, calculated from ID50 values
# [4] = target: WN, LL2 anti-idiotype antibody; test: WN competitive blocking assay, from ID50 against unmodified control F(ab′)2
# [5] = target: WN, LL2 anti-idiotype antibody; test: WN competitive blocking assay, F(ab′)2 competing with mLL2; set-up: unit not given beside the values
Molecule,rate of antibody internalization (Ke) by Raji cells [2],"Immunoreactivity (%), cell binding [3] [%]",further results
DOX-LL2 (doxorubicin-dextran-LL2 F(ab′)2 conjugate of Example 9),–,–,immunoreactivity (% of control values) [1]: 80%
cLL2Q (chimeric LL2 with the NVT to QVT mutation in VK FR1) (antibody),0.122,–,–
mLL2 F(ab′)2 fragment,–,100,–
mLL2 F(ab′)2 fragment conjugated with dextran-DOX at the VK-appended carbohydrate,–,41.9,–
murine LL2 monoclonal antibody,0.107,–,–
B1,–,–,"Immunoreactivity, % of hLL2 [4]: 100%; ID50 [5]: 0.384"
